Legend:
RXRa = RXRa (Homo sapiens, UniProt P19793); assay: no ligand; PBM; 180 nM; PBS pH 7.4, 2% milk, 0.02% Triton X-100, 1 mM DTT, BSA, 0.4 mg/ml salmon testes DNA; details: tags: His cleaved; chain copies: 2; label: surface-attached array probe
THRa:RXRa = THRa:RXRa (Homo sapiens, UniProt P10827;P19793 full;full); assay: no ligand; PBM; 90 nM : 90 nM RXRa; PBS pH 7.4, 2% milk, 0.02% Triton X-100, 1 mM DTT, BSA, 0.4 mg/ml salmon testes DNA; details: tags: His kept;His cleaved; copies: 1;1; label: surface-attached array probe
RARb:RXRa = RARb:RXRa (Homo sapiens, UniProt P10826;P19793 full;full); assay: no ligand; PBM; 270 nM : 90 nM RXRa; PBS pH 7.4, 2% milk, 0.02% Triton X-100, 1 mM DTT, BSA, 0.4 mg/ml salmon testes DNA; details: tags: His kept;His cleaved; copies: 1;1; label: surface-attached array probe
Method in brief: (§1)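 Binding z-scores were set against random background probes. The data came from custom Agilent 4×180K protein-binding microarrays carrying double-stranded probes with 34-nt variable regions, incubated 1 h with ligand-free nuclear receptor dimers. Partner-specific antibodies detected binding, and scanned fluorescence was regression-normalized.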

VDR:RXRa = VDR:RXRa (Homo sapiens, UniProt P11473;P19793 full;full); assay: as above; details: tags: His kept;His cleaved; copies: 1;1; label: surface-attached array probe
Method in brief: as §1

LXRa:RXRa = LXRa:RXRa (Homo sapiens, UniProt Q13133;P19793 full;full); assay: as above; details: tags: His kept;His cleaved; copies: 1;1; label: surface-attached array probe
Method in brief: as §1

PPARa:RXRa = PPARa:RXRa (Homo sapiens, UniProt Q07869;P19793 full;full); assay: as above; details: tags: GST kept;His cleaved; copies: 1;1; label: surface-attached array probe
Method in brief: as §1

LXRb:RXRa = LXRb:RXRa (Homo sapiens, UniProt P55055;P19793 full;full); assay: as above; details: tags: His kept;His cleaved; copies: 1;1; label: surface-attached array probe
Method in brief: as §1

FXR:RXRa = FXR:RXRa (Homo sapiens, UniProt Q96RI1;P19793 full;full); assay: as above; details: tags: His kept;His cleaved; copies: 1;1; label: surface-attached array probe
Method in brief: as §1

PXR:RXRa = PXR:RXRa (Homo sapiens, UniProt O75469;P19793 full;full); assay: as above; details: tags: His kept;His cleaved; copies: 1;1; label: surface-attached array probe
Method in brief: as §1

RARa:RXRa = RARa:RXRa (Homo sapiens, UniProt P10276;P19793 full;full); assay: as above; details: tags: His kept;His cleaved; copies: 1;1; label: surface-attached array probe
Method in brief: as §1

RARg:RXRa = RARg:RXRa (Homo sapiens, UniProt P13631;P19793 full;full); assay: as above; details: tags: His kept;His cleaved; copies: 1;1; label: surface-attached array probe
Method in brief: as §1

PPARg:RXRa = PPARg:RXRa (Homo sapiens, UniProt P37231;P19793 full;full); assay: no ligand; PBM; 180 nM : 90 nM RXRa; PBS pH 7.4, 2% milk, 0.02% Triton X-100, 1 mM DTT, BSA, 0.4 mg/ml salmon testes DNA; details: tags: His kept;His cleaved; copies: 1;1; label: surface-attached array probe

VDR:RXRa, sequence (P11473 whole entry, chain 1 of 2): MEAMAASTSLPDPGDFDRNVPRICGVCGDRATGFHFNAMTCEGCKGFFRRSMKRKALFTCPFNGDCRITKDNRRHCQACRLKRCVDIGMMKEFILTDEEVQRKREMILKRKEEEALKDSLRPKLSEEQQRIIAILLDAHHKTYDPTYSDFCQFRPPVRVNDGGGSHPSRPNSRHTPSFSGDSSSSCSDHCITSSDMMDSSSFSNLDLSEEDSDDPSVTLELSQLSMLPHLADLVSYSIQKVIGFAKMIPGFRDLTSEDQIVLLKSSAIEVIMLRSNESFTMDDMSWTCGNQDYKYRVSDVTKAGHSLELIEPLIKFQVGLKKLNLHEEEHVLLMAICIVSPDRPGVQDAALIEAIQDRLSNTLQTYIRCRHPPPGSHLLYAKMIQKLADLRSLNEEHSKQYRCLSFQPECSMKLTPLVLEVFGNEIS
VDR:RXRa, sequence (P19793 whole entry, chain 2 of 2): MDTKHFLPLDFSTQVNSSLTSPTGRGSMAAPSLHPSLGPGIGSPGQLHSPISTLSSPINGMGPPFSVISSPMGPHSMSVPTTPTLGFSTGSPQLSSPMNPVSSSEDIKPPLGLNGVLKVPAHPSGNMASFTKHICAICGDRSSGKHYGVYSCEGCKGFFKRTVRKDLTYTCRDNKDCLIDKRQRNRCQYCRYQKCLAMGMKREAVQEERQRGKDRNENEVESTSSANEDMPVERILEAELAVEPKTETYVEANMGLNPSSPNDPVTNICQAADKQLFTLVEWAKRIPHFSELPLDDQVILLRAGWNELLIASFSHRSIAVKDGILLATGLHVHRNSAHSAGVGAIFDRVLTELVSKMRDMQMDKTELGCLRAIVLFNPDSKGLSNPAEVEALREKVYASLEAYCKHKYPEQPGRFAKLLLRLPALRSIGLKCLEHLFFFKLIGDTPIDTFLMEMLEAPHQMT
RXRa, sequence (P19793 whole entry): as the sequence (P19793 whole entry, chain 2 of 2) above
RARb:RXRa, sequence (P10826 whole entry, chain 1 of 2): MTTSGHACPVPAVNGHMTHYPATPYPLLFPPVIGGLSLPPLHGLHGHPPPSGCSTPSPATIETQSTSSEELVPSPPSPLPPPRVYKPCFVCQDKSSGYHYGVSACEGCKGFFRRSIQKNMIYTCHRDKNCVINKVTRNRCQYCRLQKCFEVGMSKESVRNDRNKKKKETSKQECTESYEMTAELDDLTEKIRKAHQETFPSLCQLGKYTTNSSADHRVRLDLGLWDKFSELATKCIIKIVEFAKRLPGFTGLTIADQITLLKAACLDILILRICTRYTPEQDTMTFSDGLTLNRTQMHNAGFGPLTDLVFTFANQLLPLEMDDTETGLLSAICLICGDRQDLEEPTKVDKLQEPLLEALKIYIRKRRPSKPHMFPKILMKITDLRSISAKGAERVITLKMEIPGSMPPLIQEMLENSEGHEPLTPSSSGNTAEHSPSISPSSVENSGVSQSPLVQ
RARb:RXRa, sequence (P19793 whole entry, chain 2 of 2): as the sequence (P19793 whole entry, chain 2 of 2) above
RARa:RXRa, sequence (P10276 whole entry, chain 1 of 2): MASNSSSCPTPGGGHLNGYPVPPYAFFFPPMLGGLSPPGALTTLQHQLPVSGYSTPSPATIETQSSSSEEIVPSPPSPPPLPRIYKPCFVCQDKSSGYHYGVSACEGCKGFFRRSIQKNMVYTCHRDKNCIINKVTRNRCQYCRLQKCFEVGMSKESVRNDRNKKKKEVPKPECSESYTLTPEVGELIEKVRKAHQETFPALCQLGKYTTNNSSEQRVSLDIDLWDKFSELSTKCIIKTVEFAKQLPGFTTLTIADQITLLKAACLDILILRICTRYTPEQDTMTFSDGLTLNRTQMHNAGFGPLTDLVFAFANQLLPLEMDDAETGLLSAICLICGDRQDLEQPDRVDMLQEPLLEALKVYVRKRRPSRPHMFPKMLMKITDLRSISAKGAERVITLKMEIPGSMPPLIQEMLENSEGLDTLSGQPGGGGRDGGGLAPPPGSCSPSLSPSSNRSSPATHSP
RARa:RXRa, sequence (P19793 whole entry, chain 2 of 2): as the sequence (P19793 whole entry, chain 2 of 2) above
LXRa:RXRa, sequence (Q13133 whole entry, chain 1 of 2): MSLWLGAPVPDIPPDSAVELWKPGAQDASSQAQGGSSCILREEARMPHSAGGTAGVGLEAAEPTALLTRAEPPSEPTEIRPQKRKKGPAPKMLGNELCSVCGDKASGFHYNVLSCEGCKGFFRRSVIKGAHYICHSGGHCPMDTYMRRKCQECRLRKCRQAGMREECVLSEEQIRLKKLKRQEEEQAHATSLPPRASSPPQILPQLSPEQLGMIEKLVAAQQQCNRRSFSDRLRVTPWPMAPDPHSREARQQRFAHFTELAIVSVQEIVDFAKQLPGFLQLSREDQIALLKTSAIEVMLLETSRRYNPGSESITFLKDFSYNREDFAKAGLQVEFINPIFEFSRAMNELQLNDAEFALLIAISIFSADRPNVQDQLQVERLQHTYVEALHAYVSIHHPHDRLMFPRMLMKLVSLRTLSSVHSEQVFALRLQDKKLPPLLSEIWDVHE
LXRa:RXRa, sequence (P19793 whole entry, chain 2 of 2): as the sequence (P19793 whole entry, chain 2 of 2) above
THRa:RXRa, sequence (P10827 other isoform, or with tags, fused parts or gaps, chain 1 of 2): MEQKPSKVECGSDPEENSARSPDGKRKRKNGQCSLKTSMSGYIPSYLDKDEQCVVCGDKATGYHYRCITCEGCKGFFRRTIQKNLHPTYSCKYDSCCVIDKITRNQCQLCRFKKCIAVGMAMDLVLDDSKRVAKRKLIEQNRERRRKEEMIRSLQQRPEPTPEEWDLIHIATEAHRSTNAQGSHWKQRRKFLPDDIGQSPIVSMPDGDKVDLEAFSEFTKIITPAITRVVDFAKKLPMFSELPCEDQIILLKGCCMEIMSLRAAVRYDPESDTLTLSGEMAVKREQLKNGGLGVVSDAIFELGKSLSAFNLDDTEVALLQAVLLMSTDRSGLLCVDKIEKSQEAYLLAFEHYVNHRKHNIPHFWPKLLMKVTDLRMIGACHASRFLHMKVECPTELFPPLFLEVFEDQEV
THRa:RXRa, sequence (P19793 whole entry, chain 2 of 2): as the sequence (P19793 whole entry, chain 2 of 2) above

Binder	binding signal (RXRa)	binding signal (THRa:RXRa)	binding signal (RARb:RXRa)	binding signal (VDR:RXRa)	binding signal (LXRa:RXRa)	binding signal (PPARa:RXRa)	binding signal (LXRb:RXRa)	binding signal (FXR:RXRa)	binding signal (PXR:RXRa)	binding signal (RARa:RXRa)	binding signal (RARg:RXRa)	binding signal (PPARg:RXRa)
NRC3_wobSeed77_DR3_C8G_o1 (dsDNA) DNA 1: GCACTTAGGGGTCAACGAGGTTATAGCACGCGTATAGCGATTGACAGCGTAGAATGAAGG DNA 2: CCTTCATTCTACGCTGTCAATCGCTATACGCGTGCTATAACCTCGTTGACCCCTAAGTGC	9.89 PBM z-score against 500 random probes	4.82 PBM z-score against 500 random probes	5.68 PBM z-score against 500 random probes	8.74 PBM z-score against 500 random probes	7.15 PBM z-score against 500 random probes	7.03 PBM z-score against 500 random probes	6.91 PBM z-score against 500 random probes	9.08 PBM z-score against 500 random probes	7.16 PBM z-score against 500 random probes	7.93 PBM z-score against 500 random probes	8.09 PBM z-score against 500 random probes	–
NRC3_wobSeed99_DR4_A12T_o1 (dsDNA) DNA 1: GCTCTCGGAGGTCACGAAAGGTCAGAGCTCGACATCGCGATTGACAGCGTAGAATGAAGG DNA 2: CCTTCATTCTACGCTGTCAATCGCGATGTCGAGCTCTGACCTTTCGTGACCTCCGAGAGC	8.83 PBM z-score against 500 random probes	5.45 PBM z-score against 500 random probes	6.17 PBM z-score against 500 random probes	6.9 PBM z-score against 500 random probes	8.32 PBM z-score against 500 random probes	6.75 PBM z-score against 500 random probes	7.35 PBM z-score against 500 random probes	8.33 PBM z-score against 500 random probes	7.53 PBM z-score against 500 random probes	7.86 PBM z-score against 500 random probes	8.59 PBM z-score against 500 random probes	–
NRC3_wobSeed101_DR4_C8G_o1 (dsDNA) DNA 1: GCCCTTAGGGGTCACTCCAGGTTATAGCATCGGAGTGCGATTGACAGCGTAGAATGAAGG DNA 2: CCTTCATTCTACGCTGTCAATCGCACTCCGATGCTATAACCTGGAGTGACCCCTAAGGGC	8.62 PBM z-score against 500 random probes	5.63 PBM z-score against 500 random probes	–	6.64 PBM z-score against 500 random probes	8.6 PBM z-score against 500 random probes	6.76 PBM z-score against 500 random probes	7.21 PBM z-score against 500 random probes	8.32 PBM z-score against 500 random probes	7.15 PBM z-score against 500 random probes	7.45 PBM z-score against 500 random probes	7.43 PBM z-score against 500 random probes	–
NRC3_wobSeed109_DR4_C7A_o1 (dsDNA) DNA 1: GCCGTCAAAGGTCATAGGAGGTCAGTGAAGACAGATGCGATTGACAGCGTAGAATGAAGG DNA 2: CCTTCATTCTACGCTGTCAATCGCATCTGTCTTCACTGACCTCCTATGACCTTTGACGGC	8.51 PBM z-score against 500 random probes	5.57 PBM z-score against 500 random probes	6.2 PBM z-score against 500 random probes	7.29 PBM z-score against 500 random probes	8.48 PBM z-score against 500 random probes	7.01 PBM z-score against 500 random probes	7.17 PBM z-score against 500 random probes	8.92 PBM z-score against 500 random probes	7.51 PBM z-score against 500 random probes	7.3 PBM z-score against 500 random probes	8.29 PBM z-score against 500 random probes	–
NRC3_wobSeed1_DR0_T8G_o1 (dsDNA) DNA 1: GCCAAACGAGGTCAAGGTCAAAGTCGGTTTGTGCCAGCGATTGACAGCGTAGAATGAAGG DNA 2: CCTTCATTCTACGCTGTCAATCGCTGGCACAAACCGACTTTGACCTTGACCTCGTTTGGC	8.3 PBM z-score against 500 random probes	4.94 PBM z-score against 500 random probes	5.8 PBM z-score against 500 random probes	6.53 PBM z-score against 500 random probes	6.82 PBM z-score against 500 random probes	6.72 PBM z-score against 500 random probes	6.16 PBM z-score against 500 random probes	8.73 PBM z-score against 500 random probes	6.83 PBM z-score against 500 random probes	7.18 PBM z-score against 500 random probes	7.53 PBM z-score against 500 random probes	–
NRC3_random_hg19_355_o1 (dsDNA) DNA 1: GCTCACCGTGTTAGCCAGGATGGTCTCAATCTCCTGGCGATTGACAGCGTAGAATGAAGG DNA 2: CCTTCATTCTACGCTGTCAATCGCCAGGAGATTGAGACCATCCTGGCTAACACGGTGAGC	-0.34 PBM z-score against 500 random probes	-0.48 PBM z-score against 500 random probes	–	–	–	0.1 PBM z-score against 500 random probes	–	–	–	-0.62 PBM z-score against 500 random probes	–	-0.61 PBM z-score against 500 random probes
NRC3_random_hg19_67_o1 (dsDNA) DNA 1: GCCTGGCTGGGCATGGTGGCTCATGCCTGTAATCCCGCGATTGACAGCGTAGAATGAAGG DNA 2: CCTTCATTCTACGCTGTCAATCGCGGGATTACAGGCATGAGCCACCATGCCCAGCCAGGC	–	-0.95 PBM z-score against 500 random probes	–	–	–	–	–	–	–	-0.94 PBM z-score against 500 random probes	–	-1.37 PBM z-score against 500 random probes
